From PMC6538776, “The Bacterial DNA Binding Protein MatP Involved in Linking the Nucleoid Terminal Domain to the Divisome at Midcell Interacts with Lipid Membranes” (mBio, 2018) come the findings set out here.

Usually Kd stands for the free concentration of one partner at which half of the binding sites on the other are occupied at equilibrium, for simple one-to-one binding. The stoichiometry N is the number of molecules, sites or subunits per partner or assembly.

In one data set the target is T1, MatP (Escherichia coli, UniProt P0A8N0 1-150).
T1 sequence: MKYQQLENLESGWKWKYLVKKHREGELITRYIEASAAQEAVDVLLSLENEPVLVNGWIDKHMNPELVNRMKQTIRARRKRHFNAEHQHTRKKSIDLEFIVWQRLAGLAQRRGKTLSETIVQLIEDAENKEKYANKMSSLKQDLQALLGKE
The data set can be described thus: fluorescence anisotropy; 300 mM KCl, 5 mM MgCl2; Kd in MatP dimer units; 1 dimer per DNA; 50 mM Tris-HCl, 300 mM KCl, 5 mM MgCl2, pH 7.5; temperature not stated; matS-Fl 10 nM in anisotropy titrations. The following applies: protein: recombinant; tags: untagged (N-terminal His6 removed by thrombin); chain copies: 2; label: 5'-fluorescein on sense strand.

Data set [1] deals with the molecule itself. The data set can be described thus: AUC + other: light scattering; MatP alone in solution, working buffer (50 mM Tris-HCl, 300 mM KCl, 5 mM MgCl2, pH 7.5); details in the supplement to Fig. S7.

B1: matS-Fl (matS19) (dsDNA)
DNA 1: AAAGTGACACTGTCACCTT
DNA 2: AAGGTGACAGTGTCACTTT
B1: in the data set with MatP, the Kd was found to be 15 ± 2 nM.

B2: MatP (natural protein, Escherichia coli, UniProt P0A8N0 1-150, looked up)
chain: T1 sequence
notes: also called recombinant untagged MatP; not shown: His6, N-terminal, cleaved
As for B2, the “stoichiometry N” value in data set [1] is 2.
